Key:
Test in all cases: MST
[1] = biological target: T1, recombinant His-tagged PORA (Arabidopsis, UniProt Q42536 70-405)
T1 chain: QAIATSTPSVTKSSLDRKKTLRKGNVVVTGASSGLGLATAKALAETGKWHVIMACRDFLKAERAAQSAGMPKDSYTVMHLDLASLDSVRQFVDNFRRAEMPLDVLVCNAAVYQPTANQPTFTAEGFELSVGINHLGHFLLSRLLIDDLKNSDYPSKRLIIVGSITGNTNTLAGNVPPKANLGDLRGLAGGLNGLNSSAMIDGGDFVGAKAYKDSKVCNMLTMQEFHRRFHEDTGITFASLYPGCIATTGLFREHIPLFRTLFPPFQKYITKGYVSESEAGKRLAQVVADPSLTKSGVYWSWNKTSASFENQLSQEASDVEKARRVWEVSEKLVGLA

GST-tag = GST-tag (Schistosoma japonicum)
[2] = biological target: T2, recombinant His-tagged PORB (Arabidopsis, UniProt P21218 67-401)
T2 chain: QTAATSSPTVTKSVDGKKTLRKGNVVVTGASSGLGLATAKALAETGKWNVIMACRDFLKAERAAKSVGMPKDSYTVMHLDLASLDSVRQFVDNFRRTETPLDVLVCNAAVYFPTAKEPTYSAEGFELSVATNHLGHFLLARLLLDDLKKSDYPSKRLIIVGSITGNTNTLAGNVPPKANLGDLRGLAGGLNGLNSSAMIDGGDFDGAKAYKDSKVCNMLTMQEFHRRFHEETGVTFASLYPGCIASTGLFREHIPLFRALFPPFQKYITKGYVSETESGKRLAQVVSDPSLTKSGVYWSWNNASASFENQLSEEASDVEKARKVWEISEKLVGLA

[3] = biological target: T3, recombinant His-tagged GluTR-binding protein (GBP) (Arabidopsis, UniProt Q9LU39 43-317)
T3 chain: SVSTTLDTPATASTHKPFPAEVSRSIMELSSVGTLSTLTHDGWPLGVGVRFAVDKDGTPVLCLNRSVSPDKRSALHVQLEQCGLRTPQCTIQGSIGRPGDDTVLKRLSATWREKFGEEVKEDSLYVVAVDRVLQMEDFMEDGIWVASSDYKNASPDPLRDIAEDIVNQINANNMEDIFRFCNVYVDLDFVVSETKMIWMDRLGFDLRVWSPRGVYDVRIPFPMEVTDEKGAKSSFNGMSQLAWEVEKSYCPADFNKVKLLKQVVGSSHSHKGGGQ

[4] = biological target: T4, recombinant His-tagged PORC (Arabidopsis, UniProt O48741 68-401)
T4 chain: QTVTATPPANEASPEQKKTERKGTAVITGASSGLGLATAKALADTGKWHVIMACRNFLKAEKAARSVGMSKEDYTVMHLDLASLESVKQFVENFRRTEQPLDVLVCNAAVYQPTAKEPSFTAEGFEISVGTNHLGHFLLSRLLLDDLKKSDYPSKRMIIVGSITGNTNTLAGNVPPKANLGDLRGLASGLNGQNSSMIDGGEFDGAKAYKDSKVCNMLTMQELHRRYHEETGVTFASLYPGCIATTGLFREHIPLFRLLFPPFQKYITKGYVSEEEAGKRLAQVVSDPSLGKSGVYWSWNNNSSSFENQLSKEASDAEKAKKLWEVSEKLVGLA

[5] = biological target: T5, recombinant His-tagged full-length GluTR1 (Arabidopsis, UniProt P42804 62-543)
T5 chain: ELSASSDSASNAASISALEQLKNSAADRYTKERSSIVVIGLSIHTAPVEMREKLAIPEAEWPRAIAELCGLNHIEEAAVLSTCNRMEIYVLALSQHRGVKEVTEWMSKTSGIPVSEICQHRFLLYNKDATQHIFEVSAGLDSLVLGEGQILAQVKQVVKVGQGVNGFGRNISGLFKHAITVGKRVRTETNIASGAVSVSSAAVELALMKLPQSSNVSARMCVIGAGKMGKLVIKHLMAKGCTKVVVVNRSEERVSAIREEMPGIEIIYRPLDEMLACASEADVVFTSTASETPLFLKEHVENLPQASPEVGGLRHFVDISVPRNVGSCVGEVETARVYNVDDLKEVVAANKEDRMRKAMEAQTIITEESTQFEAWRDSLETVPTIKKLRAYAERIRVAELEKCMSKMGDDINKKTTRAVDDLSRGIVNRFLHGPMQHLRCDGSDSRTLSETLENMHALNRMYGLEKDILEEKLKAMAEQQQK

ΔREDGluTR-6xHis = biological target: T6, ΔREDGluTR-6xHis (Arabidopsis thaliana)
T6 chain: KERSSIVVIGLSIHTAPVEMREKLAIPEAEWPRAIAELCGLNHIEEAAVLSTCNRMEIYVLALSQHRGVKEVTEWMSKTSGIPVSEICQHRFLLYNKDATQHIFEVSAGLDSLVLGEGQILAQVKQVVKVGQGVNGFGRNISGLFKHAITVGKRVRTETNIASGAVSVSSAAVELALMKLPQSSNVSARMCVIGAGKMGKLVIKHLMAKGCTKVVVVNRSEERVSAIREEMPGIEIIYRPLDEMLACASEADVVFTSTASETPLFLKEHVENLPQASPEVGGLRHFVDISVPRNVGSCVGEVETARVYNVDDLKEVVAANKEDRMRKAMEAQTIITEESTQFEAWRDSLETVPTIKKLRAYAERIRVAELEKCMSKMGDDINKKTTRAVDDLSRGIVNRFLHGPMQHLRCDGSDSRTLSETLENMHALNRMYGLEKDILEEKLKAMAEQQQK

[6] = biological target: T7, linker domain followed by the TPR domain of FLU, link TPR_((FLU)) (Arabidopsis)
T7 chain: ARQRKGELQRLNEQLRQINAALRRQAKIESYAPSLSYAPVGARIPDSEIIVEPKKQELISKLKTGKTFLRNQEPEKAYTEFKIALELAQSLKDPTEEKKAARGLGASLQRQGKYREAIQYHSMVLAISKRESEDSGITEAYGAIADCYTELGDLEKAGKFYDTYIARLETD

[7] = biological target: T8, TPR domain of FLU, TPR_((FLU)), GST-tagged (Arabidopsis)
T8 chain: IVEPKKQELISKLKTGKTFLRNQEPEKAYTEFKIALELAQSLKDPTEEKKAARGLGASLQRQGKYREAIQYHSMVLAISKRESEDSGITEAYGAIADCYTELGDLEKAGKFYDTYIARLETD

B1: recombinant 6×His-tagged TTP1, RED-NHS labelled (natural protein)
chain: MLMTLAATTSVSFNSKLLLFRIRCSDSNPKRGFGSKKEEKDPALQQRKSSSKQSVSVPRKAPGLNTQFEGKSGRSFDIDFDERLENIRRSALEQKKTEVVKEFGPIDYDAPVKSDQKTIGLGTKVGVGIAVVVFGLVFALGDFLPTGSDSPTKNTTVVKNQISEEEKATLQQRLKEFETTLNGTPQDQAALEGAAVTLTELGDYSRAAAFLEKLAKERPTDPDVFRLLGEVNYELNNYEGSIAAYKISEKVSKGIDLEVTRGLMNAYLAAKKPDEAVKFLLDTRERLNTKKTSTTDSVTDETNLDPIQVELLLGKAYSDWGHISDAIAVYDQLISAHPEDFRGYLAKGIILRENGSRGDAERMFIQARFFAPNKAKALVDRYSKL
modifications: labelled with the RED-NHS Protein Labeling Kit, degree of labeling approximately 1.0
With B1 the Kd [1] was 1310 nM, the Kd (GST-tag) was greater than 400000 nM and the Kd [2] was 476 nM. The Kd [3] was 266 nM, the Kd [4] was 112 nM and the Kd [5] was 295 nM. The Kd (ΔREDGluTR-6xHis) was 3050 nM, the Kd [6] was 1610 nM and the Kd [7] was 7900 nM.
